Experiments:
[1] = for precipitation: pH 5.2
Method: Effect of additives was also tested at the 3 different pH conditions: 150 mM NaCl (FIGS. 15A, 15D and 15G); 150 mM NaCl and 100 mM arginine (FIGS. 15B, 15E and 15H): and 150 mM NaCl and 0.5 M sorbitol (FIGS. 15C, 15F and 15I). Stability was analyzed by analytical SEC.
Effect of additives was also tested at the 3 different pH conditions: 150 mM NaCl (FIGS. 16A, 16D and 16G); 150 mM NaCl and 100 mM Arg (FIGS. 16B, 16E and 16H); and 150 mM NaCl and 0.5 M sorbitol (FIGS. 16C, 16F and 16I). Stability was analyzed by analytical SEC.

[2] = system: Syrian Golden Hamsters, mucositis of the left buccal cheek pouch; test: radiation-induced oral mucositis model; format: in vivo, hamster; details: for Days <3 (animal days with a mucositis score <3) / Days ≥3 (animal days with a mucositis score ≥3): through Day 28; for % Days ≥3 (percent of animal days with a mucositis score ≥3): Vehicle 59.52%; for days of improvement in mucositis scores compared to the Vehicle control group: topical b.i.d.
Method: Forty-eight (48) male Syrian Golden Hamsters were used in the study.
Mucositis was induced by administering a single dose of radiation (40 Gy) directed to the left buccal cheek pouch at a rate of 2-2.5 Gy/min administered on Day 0. Radiation was generated with a 160 kilovolt potential (18.75-ma) source at a fecal distance of 10 cm, hardened with a 3.0 mm Al filtration system. Prior to irradiation, animals were anesthetized with an intraperitoneal injection of ketamine (160 mg/kg) and xylazine (8 mg/kg). The left buccal pouch was everted, fixed and isolated using a lead shield. Mucositis was evaluated clinically starting on Day 6 and continuing on alternate days until Day 28. The acute model has little systemic toxicity, resulting in few hamster deaths, thus permitting the use of smaller groups (n=7-8) for initial efficacy studies. It has abo been used to study specific mechanistic elements in the pathogenesis of mucositis.
The animals were divided into 6 treatment groups in which they were administered: Test agents (SG-11 or SG-11V5), a positive control (proprietary to Biomodels, LLC, Watertown, Mass.) or vehicle only were given by topical application to the left cheek pouch as detailed in Table 15 below.
On Day 0, morning dosing was performed at least 1 hour prior to irradiation and at least 1 hour post-irradiation (for PM dose). On Day 28, animals were euthanized and the left cheek pouch rom animals in Groups 1, and Groups 3-6 were excised, placed in a cryovial, snap frozen, and stored at −80° C. until shipment.
Starting on Day 6 and continuing every second day thereafter (Days 8, 10, 12, 14, 16, 18, 20, 22, 24, 26, 28) each animal was photographed and evaluated for mucositis scoring. For the evaluation of mucositis, the animals were anesthetized with an inhalation anesthetic and the left pouch everted. Mucositis was scored visually by comparison to a validated photographic scale (FIG. 37A), ranging from 0 for normal, to 5 for severe ulceration (clinical scoring). In descriptive terms, this scale is defined in Table 16.
A score of 1-2 is considered to represent a mild stage of the disease, whereas a score of […] is considered to indicate moderate to severe ulcerative mucositis. At the conclusion of the experiment, the photographs were randomly numbered and scored by two independent, trained observers who graded the images in blinded fashion using the above-described scale (blinded scoring). Hamsters reaching a mucositis severity score of 4 or higher received buprenorphine (0.5 mg/kg) SC twice a day for 48 hours or until score dropped below 4.
Statistical significance of observed differences was calculated using chi-squared analysis. The significance of differences observed between the control and treatment groups was evaluated by comparing the days with mucositis scores ≥3 and <3 between groups using chi-square analysis. The results of this analysis are shown in Table 17 far the entire study duration (through Day 28). Over the course of the study (Table 17), the percentage of animal days with a score of ≥3 in the Vehicle Group was 59.52%.

[3] = system: C57BL/6 mice treated with DSS; test: therapeutic DSS model of inflammatory bowel disease, treatment after 7 days DSS (Examples 5, 13B); format: in vivo; details: for body weight change: 50 nmoles/kg, day 11, p<0.05; for colon weight to length ratio: p<0.01
Method: Following a 7-day acclimation period, the mice were provided with drinking water containing 2.5% DSS for 7 days. Fresh 2.5% DSS water was prepared every 2 days during the 7 day DSS administration. For this therapeutic DSS study, SG-11 used to treat the animals was fused at its N-terminus to a FLAG Tag (DYKDDDDK; SEQ ID NO:32).
On day 7, normal drinking water was restored and i.p. treatments of 50 nmole/kg of SG-11 ([…]) or Gly2-GLP2 (0.2 mg/kg) were initiated. Treatments were administered twice a day (b.i.d.), with a morning and evening dose (every 8 and 16 hours) for six days.
Body weight was measured daily during the morning treatment. The colon tissue was then harvested and length was measured in centimeters and the tissue was weighed. Fecal material was flushed from the colon and residual PBS removed by gently running the colon tissue through a pair of forceps. The colon tissue was then weighed and colon weight to length ratio in mg/mm was determined. Following weight measurements proximal and distal colon tissue was banked for RNA and protein analysis and the remaining tissues was fixed in 10% neutral buffered formalin for histopathology. Statistical analysis was performed by a one-way ANOVA compared to DSS+vehicle for serum 4KDa-FITC translocation, scrum LBP concentrations, colon length, and colon weight to length ratio, while a two-way ANOVA was performed for analysis of body weight. In all analysis, a Fisher's LSD test for multiple comparisons was used. Graphs represent data pooled from two experiments, and are plotted as mean±SEM.
Histopathology analysis was performed on proximal and distal colon tissues from the therapeutic DSS model described above. Proximal (FIG. 13A) and distal (FIG. 13B) colon scores (range 0-4) are presented as well as the total score for the colon which represents the sum of proximal and distal colon scores (Range 0-8) (FIG. 13C). LMA=Loss of mucosal architecture, Edema=Edema, INF=Inflammation, TMI=Transmural inflammation, MH=Mucosal hyperplasia, DYS=Dysplasia. Graphs represent data pooled from two independent experiments, and are plotted as mean±SEM. Statistical analysis was performed by a one-way ANOVA compared to DSS+vehicle followed by a Fisher's LSD test for multiple comparisons.
In the second experiment (Example 13B), mice were provided with drinking water containing 2.5% DSS for 7 days. […] Treatments were administered twice a day (b.i.d.), with a morning and evening dose (every 8 and 16 hours) for 4 days. For both the prophylactic and therapeutic models, fresh 2.5% DSS water was prepared every 2 days during the DSS administration.
At the end of each DSS model study, mice were fasted for 4 hours and then orally gavaged with 600 mg/kg 4KDa dextran labeled with FITC [4KDa-FITC]. One hour after the 4KDa-FITC gavage, mice were euthanized, blood was collected, and FITC signal was measured in serum. […] Data in both graphs are plotted as mean±SEM and each figure represent data from an individual experiment (n=10 per group).
Upon completion of the OSS models above. LBP levels were measured as an inflammation centric readout of barrier function following the protocol detailed in Example 5. Upon completion of both DSS models (Examples 13A and 13B), blood was collected and serum was isolated. LPS binding protein (LBP) levels were measured in serum using a commercially available ELISA Kit (Enzo Lift Sciences).

[4] = 0.75 mg/ml, 0.2 ml topical b.i.d., SG-11 Day 16, SG-11V5 Days 16 and 18, Vehicle 3.29
[5] = Example 13B, 50 nmole/kg i.p. b.i.d. 4 days after 7 days DSS
[6] = Example 5, 50 nmole/kg i.p. b.i.d. six days after 7 days DSS

| Molecule | precipitation [1] | Days <3 (animal days with a mucositis score <3) ([2]; 0.75 mg/mL) | Days ≥3 (animal days with a mucositis score ≥3) ([2]; 0.75 mg/mL) | peak mean mucositis score (scale 0-5) [2, 4] | days of improvement in mucositis scores compared to the Vehicle control group [2] | colon length ([3]; Example 13B (FIG. 22B)) | serum LBP [3, 5] | body weight change ([3]; Example 13B) | colon weight to length ratio ([3]; Example 13B) | further results |
| --- | --- | --- | --- | --- | --- | --- | --- | --- | --- | --- |
| SG-11V5: variant of SEQ ID NO:7 with N53S, N83S, C147V, C151S (protein, Artificial variant of SG-11 (N53S, N83S, C147V, C151S)) MLEGEESVVYVGKKGVIASLDVETLDQSYYDETELKSYVDAEVEDYTAEHGKSAVKVESLKVEDGVAKLKMKYKTPEDYTAFSGIELYQGKVVASLAAGYVYDGEFARVEEGKVVGAATKQDIYSEDDLKVAIIRANTDVKVDGEIVYVSSQNVKLTGKDSVSIRDGYYLETGSVTASVDVTGQESVGTEQLSGTEQMEMTGEPVNADDTEQTEAAAGDGSFETDVYTFIVYK | precipitated | 120 | 72 | 2.63 | multiple days | significant increase in the colon length | no reduction in LBP | statistically improved body weight changes | significantly improved colon weight to length ratios | aggregation by analytical SEC ([1]; all conditions tested (pH 5.2, 7.0, 8.0; NaCl, arginine, sorbitol)): did not show a large amount of aggregation; Days <3 (animal days with a mucositis score <3) ([2]; 0.075 mg/mL): 106; Days ≥3 (animal days with a mucositis score ≥3) ([2]; 0.075 mg/mL): 86; peak mean mucositis score (scale 0-5) ([2]; 0.075 mg/ml topical b.i.d., Days 16 and 18): 3.00; % Days ≥3 (percent of animal days with a mucositis score ≥3) ([2]; 0.24 mg/mL): 53.65%; Days <3 (animal days with a mucositis score <3) ([2]; 0.24 mg/mL): 89; Days ≥3 (animal days with a mucositis score ≥3) ([2]; 0.24 mg/mL): 103; peak mean mucositis score (scale 0-5) ([2]; 0.24 mg/ml topical b.i.d., Days 16 and 18): 3.13 |
| SG-11: Roseburia hominis protein comprising SEQ ID NO:3; tested as SEQ ID NO:5, SEQ ID NO:7 or FLAG-tagged SEQ ID NO:9 (protein, listed as Rosburia hominis) LEGEESVVYVGKKGVIASLDVETLDQSYYDETELKSYVDAEVEDYTAEHGKNAVKVESLKVEDGVAKLKMKYKTPEDYTAFNGIELYQGKVVASLAAGYVYDGEFARVEEGKVVGAATKQDIYSEDDLKVAIIRANTDVKVDGEICYVSCQNVKLTGKDSVSIRDGYYLETGSVTASVDVTGQESVGTEQLSGTEQMEMTGEPVNADDTEQTEAAAGDGSFETDVYTFIVYK | precipitated | 96 | 96 | 3.25 | one day of improvement | significant increase in the colon length | no reduction in LBP | statistically improved body weight changes | significantly improved colon weight to length ratios | aggregate formation by analytical SEC ([1]; 100 mM arginine at pH 7.0): greatly suppressed; % Days ≥3 (percent of animal days with a mucositis score ≥3) ([2]; 0.75 mg/mL): 50.00%; histopathology: inflammation and transmural inflammation scores ([3]; Example 5): no change; histopathology: loss of mucosal architecture score ([3]; Example 5): modest, but significant reduction; body weight [3, 6]: significant improvements; colon length [3, 6]: significant improvements; colon weight to length [3, 6]: significant improvements; serum LBP ([3]; Example 5, 50 nmole/kg i.p. b.i.d. six days after 7 days DSS, FLAG-tagged SG-11): no reduction in LBP; frequency of thick colons ([3]; Example 5, DSS+vehicle 88%, p<0.0001): 25% |

Reference: patent publication US20210380994A1, “LACTOCOCCUS LACTIS EXPRESSION SYSTEM FOR DELIVERING PROTEINS EFFICACIOUS FOR THE TREATMENT OF EPITHELIAL BARRIER FUNCTION DISORDERS” (Second Genome, Inc., priority 2018, published 2021)
